Assay results from patent publication US20100092494A1 (BOARD OF TRUSTEES OF THE UNIVERSITY OF ILLINOIS, published 2010).

Key:
PFO-PAGE and immunoblot = target: the molecule itself; assay: PFO-PAGE and immunoblot
human basigin-2 = target: T1, human basigin-2 (human, UniProt P35613 140-385); assay: Sulfo-SBED biotin label transfer on HESC and CCL-2 cells, basigin immunoprecipitation, neutravidin-HRP blot
T1 construct: Endogenous glycosylated protein of HESC uterine fibroblasts and CCL-2 (HeLa) cells, found in the membrane fraction; also called basigin isoform 2; 50 kDa basigin protein
T1 sequence: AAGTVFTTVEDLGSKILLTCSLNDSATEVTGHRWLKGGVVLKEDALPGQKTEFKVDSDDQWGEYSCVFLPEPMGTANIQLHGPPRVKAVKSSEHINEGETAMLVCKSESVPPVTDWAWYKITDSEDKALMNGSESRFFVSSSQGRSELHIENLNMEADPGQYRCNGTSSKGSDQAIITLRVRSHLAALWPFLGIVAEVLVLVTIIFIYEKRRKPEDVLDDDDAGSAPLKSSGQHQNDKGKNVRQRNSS
Protocol: Biotin label transfer from rBSG to CCL-2 cells (HeLa) was performed by treating cells with increasing concentrations of SEED-labeled rBSG (0, 0.05, 0.5, 5, and 50 μg/ml) for 10 minutes at 37° C. Following 5 minutes of UV light treatment, cells were washed twice with PBS and total cell lysates collected using IP buffer. Proteins from labeled cells were precipitated with either neutravidin beads (FIGS. 7A and 7B) or immunoprecipitated with the P2C2 mAb (FIGS. 7C and 7D). Precipitated proteins were resolved by 15% SDS-PAGE in duplicate, and immunoblotted with either Streptavidin-HRP (FIGS. 7A and 7C) or with the R&D Systems anti-hEMMPRIN pAb (FIGS. 7B and 7D). The Santa Cruz goat anti-rabbit (anti-mouse, anti-human depleted)-HRP secondary antibody used for this experiment was previously shown to not cross-react with the P2C2 mAb. The basigin-2 band is indicated with an arrowhead and the basigin-3/rBSG band is indicated with an arrow. This experiment was performed twice with similar results.
Immunoprecipitation and Immunoblot Analysis. Immunoprecipitation of basigin was performed using the monoclonal antibody P2C2. Ten to […] of antibody added to 1 mg soluble protein was incubated overnight at 4° C. with rocking, and immune complexes were collected on protein G SEPHAROSE beads for 4 hours at 4° C. Immunoprecipitated proteins were resolved by SDS-PAGE using standard methods. […]

B1: recombinant human basigin extracellular domain construct (rBSG) (ligand)
chain: WSHPQFEKAGTVFTTVEDLGSKILLTCSLNDSATEVTGHRWLKGGVVLKEDALPGQKTEFKVDSDDQWGEYSCVFLPEPMGTANIQLHGPPRVKAVKSSEHINEGETAMLVCKSESVPPVTDWAWYKITDSEDKALMNGSESRFFVSSSQGRSELHIENLNMEADPGQYRCNGTSSKGSDQAIITLRVRSHLHHHHHH
notes: also called recombinant basigin; soluble rBSG
binding result (PFO-PAGE and immunoblot): binds
binding result (human basigin-2): binds
